{"source": "paper PMC2819690", "about": "(The Journal of Cell Biology, 2010)", "binders": {"B1": {"name": "Syb49–96 (domain or fragment)", "chain": "NVDKVLERDQKLSELDDRADALQAGASQFETSAAKLKRKYWWKNLKMM"}}, "biological_target": "SNARE (H3) domain of syntaxin-1a (aa 180–262) (rat, UniProt P32851 180-262)", "sequence (P32851 180-262)": "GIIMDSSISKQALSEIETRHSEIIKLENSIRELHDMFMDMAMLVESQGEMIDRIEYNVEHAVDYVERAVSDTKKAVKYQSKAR", "assay": "assembly of purified monomers and anion-exchange chromatography", "data": [{"binder": "B1", "values": [{"measurement": "binding result", "result": "binds"}]}]}
